In PMC3526301:

Experiments:
[1] = molecular target: T1, human alpha-thrombin (Homo sapiens) (UniProt P00734+P00734); experiment: bead-based fluorescence binding; conditions: 50 mM Tris, 100 mM NaCl, 1 mM MgCl2, 5 mM KCl, 1 mM CaCl2, 0.01% Tween 20, pH 7.5 (selection buffer), 1 h room temperature …
[2] = molecular target: T1, human alpha-thrombin (Homo sapiens); experiment: fibrin formation inhibition (OD350); conditions: 50 mM Tris, 100 mM NaCl, 1 mM MgCl2, 5 mM KCl, 1 mM CaCl2, 0.01% Tween 20, pH 7.5 (selection buffer), 1 h room temperature …

Sequence	fold affinity loss vs TBV-08 (fold lower affinity than TBV-08) [1]	Ki [2]
AGTCCGTGGTAGGGCAGGTTGGGGTGACT [Tasset-29]	200	–
GGTTGGTGTGGTTGG [Bock-15]	300	2.61 nM
